Data as given in patent US20040136985A1, “Methods of modifying behavior of CD9-expressing cells” (priority 2002, published 2004).
Several values for one entry are separate records, joined by “and”; a condition that tells them apart may be missing. Equal entries are not always repeated. One block for each substance: values may come before it.

Key:
[1] = molecular target: His6-rCD9 (human) (UniProt P21926); experiment: ELISA, absolute values, FN on immobilized His6-rCD9
[2] = molecular target: peptide 5 (human); experiment: ELISA, FN 75 µg/ml on immobilized peptide (10 µM coat)
peptide 5 (human), sequence (chain, as listed by the source): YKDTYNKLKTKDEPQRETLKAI

[3] = molecular target: peptide 6 (human); experiment: as above
peptide 6 (human), sequence (chain, as listed by the source): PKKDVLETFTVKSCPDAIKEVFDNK

[4] = molecular target: His6-rCD9 (human) (UniProt P21926); experiment: ELISA, FN titrated on immobilized His6-rCD9, 2.5 mM Ca2+
[5] = molecular target: purified platelet CD9 (human) (UniProt P21926); experiment: ELISA, FN titrated on immobilized platelet CD9, 2.5 mM CaCl2
purified platelet CD9 (human), sequence (P21926 2-228 limits assumed): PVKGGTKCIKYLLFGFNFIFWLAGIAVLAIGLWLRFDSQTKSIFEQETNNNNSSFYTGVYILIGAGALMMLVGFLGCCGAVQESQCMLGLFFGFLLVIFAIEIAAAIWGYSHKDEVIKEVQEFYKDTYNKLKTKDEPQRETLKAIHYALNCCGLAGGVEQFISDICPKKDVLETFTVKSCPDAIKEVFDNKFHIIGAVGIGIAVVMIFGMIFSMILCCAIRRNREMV

[6] = molecular target: hamster integrin subunit β1 on CHO cells (hamster); experiment: flow cytometry, CD9-CHO-B2 cells
[7] = molecular target: hamster integrin subunit β1 on CHO cells (hamster); experiment: flow cytometry, CD9-CHO-K1 cells
[8] = molecular target: hamster integrin subunit β1 on CHO cells (hamster); experiment: flow cytometry, MOCK-CHO-B2 cells
[9] = molecular target: hamster integrin subunit β1 on CHO cells (hamster); experiment: flow cytometry, MOCK-CHO-K1 cells
[10] = molecular target: hamster integrin α5β1 on CHO cells (hamster); experiment: flow cytometry, CD9-CHO-K1 cells
[11] = molecular target: hamster integrin α5β1 on CHO cells (hamster); experiment: flow cytometry, MOCK-CHO-K1 cells

human plasma fibronectin, P02751 32-2296 (ligand), sequence (P02751 other isoform, or with tags, fused parts or gaps limits assumed): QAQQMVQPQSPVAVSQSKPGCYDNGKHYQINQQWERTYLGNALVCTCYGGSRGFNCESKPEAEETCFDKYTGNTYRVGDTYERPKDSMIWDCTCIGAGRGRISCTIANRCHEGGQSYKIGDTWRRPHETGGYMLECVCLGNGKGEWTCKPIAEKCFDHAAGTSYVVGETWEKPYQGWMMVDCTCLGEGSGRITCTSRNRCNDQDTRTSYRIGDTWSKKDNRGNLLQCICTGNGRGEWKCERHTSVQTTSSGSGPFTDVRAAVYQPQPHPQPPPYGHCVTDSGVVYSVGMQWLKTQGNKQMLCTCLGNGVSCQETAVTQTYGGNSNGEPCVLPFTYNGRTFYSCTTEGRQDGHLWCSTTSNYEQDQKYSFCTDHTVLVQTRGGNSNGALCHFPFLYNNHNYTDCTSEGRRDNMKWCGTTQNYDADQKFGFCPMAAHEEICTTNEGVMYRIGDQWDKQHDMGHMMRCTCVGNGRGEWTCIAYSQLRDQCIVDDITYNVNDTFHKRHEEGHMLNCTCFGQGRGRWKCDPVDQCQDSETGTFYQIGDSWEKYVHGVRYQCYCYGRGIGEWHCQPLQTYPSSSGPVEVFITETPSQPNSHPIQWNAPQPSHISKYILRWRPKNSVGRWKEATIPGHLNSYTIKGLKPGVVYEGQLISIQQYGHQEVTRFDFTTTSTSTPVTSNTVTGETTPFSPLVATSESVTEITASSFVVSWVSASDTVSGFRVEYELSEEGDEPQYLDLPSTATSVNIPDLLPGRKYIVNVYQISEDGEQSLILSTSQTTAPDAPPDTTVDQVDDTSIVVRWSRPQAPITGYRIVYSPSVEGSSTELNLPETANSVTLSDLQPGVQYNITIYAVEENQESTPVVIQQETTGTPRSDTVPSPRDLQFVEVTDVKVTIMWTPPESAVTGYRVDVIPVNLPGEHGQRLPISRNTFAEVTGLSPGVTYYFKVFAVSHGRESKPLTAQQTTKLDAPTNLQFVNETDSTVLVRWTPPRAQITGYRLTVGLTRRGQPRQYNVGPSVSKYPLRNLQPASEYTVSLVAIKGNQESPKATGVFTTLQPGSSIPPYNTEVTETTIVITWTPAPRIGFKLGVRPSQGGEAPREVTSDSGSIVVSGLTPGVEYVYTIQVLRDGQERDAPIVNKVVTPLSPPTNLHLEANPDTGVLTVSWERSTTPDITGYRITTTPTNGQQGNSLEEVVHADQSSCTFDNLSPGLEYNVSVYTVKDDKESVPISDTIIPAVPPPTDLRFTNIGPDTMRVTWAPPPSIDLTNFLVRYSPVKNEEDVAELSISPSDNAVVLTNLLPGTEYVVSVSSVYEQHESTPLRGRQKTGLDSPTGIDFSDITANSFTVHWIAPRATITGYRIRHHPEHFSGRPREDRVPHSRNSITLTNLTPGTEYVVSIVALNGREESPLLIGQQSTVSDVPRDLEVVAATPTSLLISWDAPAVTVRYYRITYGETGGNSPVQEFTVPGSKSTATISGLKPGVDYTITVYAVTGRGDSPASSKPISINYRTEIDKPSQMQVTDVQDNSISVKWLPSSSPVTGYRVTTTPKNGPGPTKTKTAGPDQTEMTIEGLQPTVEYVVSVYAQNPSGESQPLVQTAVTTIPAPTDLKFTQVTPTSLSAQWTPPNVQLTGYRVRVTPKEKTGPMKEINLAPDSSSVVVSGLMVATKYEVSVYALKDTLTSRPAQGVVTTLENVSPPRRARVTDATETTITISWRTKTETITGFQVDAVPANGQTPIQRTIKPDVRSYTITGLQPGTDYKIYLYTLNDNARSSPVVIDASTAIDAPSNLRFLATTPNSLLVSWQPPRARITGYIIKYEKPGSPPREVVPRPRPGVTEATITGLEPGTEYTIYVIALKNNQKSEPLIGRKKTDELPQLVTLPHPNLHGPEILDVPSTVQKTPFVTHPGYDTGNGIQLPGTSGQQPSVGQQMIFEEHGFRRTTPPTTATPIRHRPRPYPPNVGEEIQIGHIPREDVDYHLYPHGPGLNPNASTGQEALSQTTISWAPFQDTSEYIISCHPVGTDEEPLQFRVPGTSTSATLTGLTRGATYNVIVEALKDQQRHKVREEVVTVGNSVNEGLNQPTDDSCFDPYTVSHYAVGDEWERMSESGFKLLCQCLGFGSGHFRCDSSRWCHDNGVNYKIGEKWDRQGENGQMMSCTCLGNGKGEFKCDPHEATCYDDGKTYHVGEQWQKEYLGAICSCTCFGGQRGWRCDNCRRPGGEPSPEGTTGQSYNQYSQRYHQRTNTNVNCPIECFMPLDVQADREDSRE
His6-rCD9 (human), sequence (P21926 whole entry): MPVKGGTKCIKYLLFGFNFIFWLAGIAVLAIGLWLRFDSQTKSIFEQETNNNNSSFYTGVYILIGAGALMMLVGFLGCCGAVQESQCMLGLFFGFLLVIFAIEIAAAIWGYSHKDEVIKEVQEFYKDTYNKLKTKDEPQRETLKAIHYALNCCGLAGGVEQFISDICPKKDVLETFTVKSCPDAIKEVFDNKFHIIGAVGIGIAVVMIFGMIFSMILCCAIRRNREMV

ELISA binding against purified CD9 (% lower than purified CD9) [1]: 40
binding relative to intact platelet purified CD9 (% of binding to platelet CD9) [2]: 19
binding relative to intact platelet purified CD9 (% of binding to platelet CD9) [3]: 65
EC50 [4]: 0.12 µM
EC50 [5]: 35.6 µg/mL and 81 nM
Substance: human plasma fibronectin, P02751 32-2296 (ligand)

% positive [6]: 100%
Fold-increase (over isotype control) (fold MFI over isotype control) [6]: 6
% positive [7]: 97%
Fold-increase (over isotype control) (fold MFI over isotype control) [7]: 6
% positive [8]: 100%
Fold-increase (over isotype control) (fold MFI over isotype control) [8]: 0
% positive [9]: 100%
Fold-increase (over isotype control) (fold MFI over isotype control) [9]: 7
Substance: antibody 7E2

% positive [10]: 98%
Fold-increase (over isotype control) (fold MFI over isotype control) [10]: 4
% positive [11]: 100%
Fold-increase (over isotype control) (fold MFI over isotype control) [11]: 4
Substance: antibody PB1
